Source: publication PMC4282956
Where two headings read alike, the source gives them in different places.

Experiments:
Experiment in all cases: SPR
[1] = molecular target: HLA-B*08:01.R82L/FLR (human | not stated | EBV)
[2] = molecular target: HLA-B*08:01.N80I.R82L.G83R/FLR (human | not stated | EBV)
[3] = molecular target: HLA-B*08:01.N80I.R82L.G83R/FLR (human | not stated | EBV); remark: listed apart in the source

Substance: Soluble KIR3DL1*001 (from UniProt P43629 22-340) (receptor)
- Kd [1]: > 300 µM
- Kd [2]: 41.9 µM
- Kd [3]: 40.1 µM
